According to paper PMC11889166:

Legend:
[1] = target: EYFP-CD74minRTS (pEYFP-C1-CD74minRTS) (human) (UniProt P04233); test: FRET or BRET; FLIM-FRET (TCSPC, two-photon microscope, FALCON) in fixed HEK293 cells co-transfected with ECFP-CXCR4 (donor) and EYFP-CD74 (acceptor)
[2] = target: EYFP-CD74minRTS (pEYFP-C1-CD74minRTS) (human) (UniProt P04233); test: FRET or BRET; FLIM-FRET in live HEK293 cells co-transfected with ECFP-CXCR4 and EYFP-CD74, monitored at one-minute intervals during exposure to MIF-2 (4 nM, 10 min, 37 °C); MIF (8 nM) as comparison reduced the lifetime to a lesser extent
[3] = target: EYFP-CD74minRTS (pEYFP-C1-CD74minRTS) (human) (UniProt P04233); test: FRET or BRET; FLIM-FRET (TCSPC, two-photon microscope, FALCON) in fixed Huh-7 cells co-transfected with ECFP-CXCR4 (donor) and EYFP-CD74 (acceptor); donor-alone lifetime 2.52 ns used; also with MIF-2 stimulation before fixation (FRET efficiency increased)

Chain of UniProt P04233 (P04233 whole entry): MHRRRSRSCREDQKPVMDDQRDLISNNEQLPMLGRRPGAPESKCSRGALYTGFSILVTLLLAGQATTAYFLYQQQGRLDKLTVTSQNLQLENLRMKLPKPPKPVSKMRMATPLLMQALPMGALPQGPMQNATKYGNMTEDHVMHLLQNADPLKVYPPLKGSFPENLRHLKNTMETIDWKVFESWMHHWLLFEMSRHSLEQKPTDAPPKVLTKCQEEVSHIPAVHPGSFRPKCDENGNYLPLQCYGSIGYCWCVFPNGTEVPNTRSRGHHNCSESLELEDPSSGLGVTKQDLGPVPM

FRET efficiency [1]: 50%
fluorescence lifetime of the donor ECFP-CXCR4 with the acceptor, after MIF-2 stimulation [2]: 2 ns
FRET efficiency [3]: 17 to 20%
Substance: ECFP-tagged CXCR4 (pECFP-N1-CXCR4) (from UniProt P61073 1-352) (receptor)
